Reference: the supplement of paper PMC6755084

B1: minF1; a variant is named by its letters at N, in order (parent)
chain: GAGACCGCAACTGAAAAGTTGTTNNNNAANNNNGGNTNNATTTCTGCACGTAGAAGCAAAAGGC

Variants of: B1
Experiment: fraction ligated after 30 min (ligated reads / total reads); higher = more ligase activity
Conditions: with F1*subA RNA substrate (template-directed ligation), 42 °C
Description: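 Chip-synthesised pool of minF1 ligase ribozyme variants (single and double substitutions, single to quadruple deletions, bulge and P2 designed variants) was transcribed with T7 and reacted as a pool with excess substrate F1*subA for 30 min at 42 C in 50 mM EPPS pH 8.5, 25 mM MgCl2. Ligated and unligated RNAs were separated by PAGE, barcoded by RT and deep sequenced; fraction ligated = ligated reads / total reads, relative activity = FL / FL of wild-type minF1 (0.76); sequencing FL correlated with PAGE (R2 = 0.98). Sequences are the DNA template of the ribozyme.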

Row | Variant | fraction ligated
1 | ACGATGATGTA | 0.00144
2 | TCGATGATGTA T23A | 0.00263
3 | TCGATGATGTG | 0.00893
4 | ACGATGATGTG | 0.00517
5 | TCGATGATGTG T23A | 0.00459
6 | TCGATGATTGA | 0.00257
7 | ACGATGATTGA | 0.00224
8 | TCGATGATTGA T23A | 0.00304
9 | TCGATGGAGTA | 0.00705
10 | ACGATGGAGTA | 0.00344
11 | TCGATGGAGTA G34T | 0.143
12 | ACGATGGAGTA G34T | 0.0869
13 | TCGATGGAGTA T23A | 0.00851
14 | TCGATGGAGTA T23A G34T | 0.139
15 | TCGATGGAGTG | 0.0131
16 | ACGATGGAGTG | 0.0132
17 | TCGATGGAGTG G34T | 0.253
18 | ACGATGGAGTG G34T | 0.156
19 | TCGATGGAGTG T23A | 0.02
20 | TCGATGGAGTG T23A G34T | 0.25
21 | TCGATGGAGTT G34T T37G | 0.00201
22 | ACGATGGAGTT G34T T37G | 0.00155
23 | TCGATGGAGTT G34T T37G A40G | 0.000433
24 | ACGATGGAGTT G34T T37G A40G | 0.00103

Row | Variant | fraction ligated
25 | TCGATGGAGTT T23A G34T T37G | 0.001
26 | TCGATGGAGTT T23A G34T T37G A40G | 0.00165
27 | TCGATGGATGA | 0.00257
28 | ACGATGGATGA | 0.0034
29 | TCGATGGATGA T23A | 0.00236
30 | TCGATGGGTGA | 0.00376
31 | ACGATGGGTGA | 0.00155
32 | TCGATGGGTGA T23A | 0.000539
33 | TCGATGGTGTA | 0.00285
34 | ACGATGGTGTA | 0.00204
35 | TCGATGGTGTA T23A | 0.00392
36 | TCGATGGTGTG | 0.00467
37 | ACGATGGTGTG | 0.00433
38 | TCGATGGTGTG T23A | 0.00391
39 | TCGATGGTTGA | 0.00257
40 | ACGATGGTTGA | 0.00307
41 | TCGATGGTTGA T23A | 0.00216
42 | TCGATGTGTGA | 0.0025
43 | ACGATGTGTGA | 0.00232
44 | TCGATGTGTGA T23A | 0.00234
45 | AGAAGATGTGA A28T A29G | 0.00743
46 | CGAAGATGTGA A28T A29G | 0.00384
47 | TGAAGATGTGA A28T A29G | 0.00314
48 | AGAAGATGTGA A29G | 0.00203

Row | Variant | fraction ligated
49 | CGAAGATGTGA A29G | 0.00313
50 | TGAAGATGTGA A29G | 0.00286
51 | AGAAGATGTGA A29T | 0.00448
52 | CGAAGATGTGA A29T | 0.00363
53 | TGAAGATGTGA A29T | 0.00283
54 | AGAAGATGTGA T23A A28T A29G | 0.00449
55 | CGAAGATGTGA T23A A28T A29G | 0.00787
56 | TGAAGATGTGA T23A A28T A29G | 0.00603
57 | AGAAGATGTGA T23A A29G | 0.00362
58 | CGAAGATGTGA T23A A29G | 0.00107
59 | TGAAGATGTGA T23A A29G | 0.00128
60 | AGAAGATGTGA T23A A29T | 0.00161
61 | CGAAGATGTGA T23A A29T | 0.00299
62 | TGAAGATGTGA T23A A29T | 0.00202
63 | AGAAGATGTGA T23C A28T A29G | 0.00411
64 | AGAAGATGTGA T23C A29G | 0.00313
65 | AGAAGATGTGA T23C A29T | 0.00701
66 | AGAAGGAGTGA A29T | 0.00436
67 | CGAAGGAGTGA A29T | 0.00331
68 | TGAAGGAGTGA A29T | 0.000652
69 | AGAAGGAGTGA T23A A29T | 0.00185
70 | CGAAGGAGTGA T23A A29T | 0.00498
71 | TGAAGGAGTGA T23A A29T | 0.00234
72 | AGAAGGAGTGA T23C A29T | 0.0019

Row | Variant | fraction ligated
73 | AGAAGGATGTA A29T | 0.00434
74 | CGAAGGATGTA A29T | 0.00492
75 | TGAAGGATGTA A29T | 0.00266
76 | AGAAGGATGTA T23A A29T | 0.00442
77 | CGAAGGATGTA T23A A29T | 0.0054
78 | TGAAGGATGTA T23A A29T | 0.00285
79 | AGAAGGATGTA T23C A29T | 0.00442
80 | AGAAGGATGTG A29T | 0.00505
81 | CGAAGGATGTG A29T | 0.0152
82 | TGAAGGATGTG A29T | 0.00863
83 | AGAAGGATGTG T23A A29T | 0.00517
84 | CGAAGGATGTG T23A A29T | 0.0123
85 | TGAAGGATGTG T23A A29T | 0.00766
86 | AGAAGGATGTG T23C A29T | 0.00819
87 | AGAAGGATTGA A29T | 0.00498
88 | CGAAGGATTGA A29T | 0.00943
89 | TGAAGGATTGA A29T | 0.0036
90 | AGAAGGATTGA T23A A29T | 0.00594
91 | CGAAGGATTGA T23A A29T | 0.0076
92 | TGAAGGATTGA T23A A29T | 0.00566
93 | AGAAGGATTGA T23C A29T | 0.00646
94 | AGAAGGTGTGA A29T | 0.0036
95 | CGAAGGTGTGA A29T | 0.00384
96 | TGAAGGTGTGA A29T | 0.00178

Row | Variant | fraction ligated
97 | AGAAGGTGTGA T23A A29T | 0.00188
98 | CGAAGGTGTGA T23A A29T | 0.000502
99 | TGAAGGTGTGA T23A A29T | 0.00263
100 | AGAAGGTGTGA T23C A29T | 0.00383
101 | ATAAGATGTGA | 0.00253
102 | ATAAGATGTGA A28T A29G | 0.0107
103 | ATAAGATGTGA A29G | 0.00765
104 | ATAAGATGTGA A29T | 0.00321
105 | ATAAGGAGTGA | 0.000696
106 | ATAAGGAGTGA A29T | 0.00469
107 | ATAAGGATGTA | 0.00287
108 | ATAAGGATGTA A29T | 0.00345
109 | ATAAGGATGTG | 0.00567
110 | ATAAGGATGTG A29T | 0.00947
111 | ATAAGGATTGA | 0.0033
112 | ATAAGGATTGA A29T | 0.00367
113 | ATAAGGTGTGA | 0.00238
114 | ATAAGGTGTGA A29T | 0.00316
115 | ATAATATGTGA | 0.00335
116 | ATAATGAGTGA | 0.00461
117 | ATAATGATGTA | 0.00361
118 | ATAATGATGTG | 0.00571
119 | ATAATGATTGA | 0.00291
120 | ATAATGGAGTA | 0.00371

Row | Variant | fraction ligated
121 | ATAATGGAGTA G34T | 0.00307
122 | ATAATGGAGTG | 0.00646
123 | ATAATGGAGTG G34T | 0.0113
124 | ATAATGGAGTT G34T T37G | 0.00161
125 | ATAATGGAGTT G34T T37G A40G | 0.00113
126 | ATAATGGATGA | 0.00189
127 | ATAATGGGTGA | 0.00329
128 | ATAATGGTGTA | 0.00235
129 | ATAATGGTGTG | 0.00419
130 | ATAATGGTTGA | 0.00319
131 | ATAATGTGTGA | 0.00221
132 | ATAGAATGTGA | 0.00417
133 | ATAGAGAGTGA | 0.000691
134 | ATAGAGATGTA | 0.00327
135 | ATAGAGATGTG | 0.00764
136 | ATAGAGATTGA | 0.0019
137 | ATAGAGGAGTA | 0.00256
138 | ATAGAGGAGTA G34T | 0.00281
139 | ATAGAGGAGTG | 0.00449
140 | ATAGAGGAGTG G34T | 0.0028
141 | ATAGAGGAGTT G34T T37G | 0.00132
142 | ATAGAGGAGTT G34T T37G A40G | 0.00121
143 | ATAGAGGATGA | 0.00219
144 | ATAGAGGGTGA | 0.00176

Row | Variant | fraction ligated
145 | ATAGAGGTGTA | 0.00141
146 | ATAGAGGTGTG | 0.00428
147 | ATAGAGGTTGA | 0.00247
148 | ATAGAGTGTGA | 0.00554
149 | ATAGATAGTGA | 0.00268
150 | ATAGATATGTA | 0.00365
151 | ATAGATATGTG | 0.013
152 | ATAGATATTGA | 0.00398
153 | ATAGATGAGTA | 0.00311
154 | ATAGATGAGTA G34T | 0.0034
155 | ATAGATGAGTG | 0.0071
156 | ATAGATGAGTG G34T | 0.00408
157 | ATAGATGAGTT G34T T37G | 0.00193
158 | ATAGATGAGTT G34T T37G A40G | 0.00153
159 | ATAGATGATGA | 0.00363
160 | ATAGATGGGGT G34A G35T T37G A40T | 0.00172
161 | ATAGATGGGTA | 0.00171
162 | ATAGATGGGTA G34A | 0.00325
163 | ATAGATGGGTA G34T | 0.00288
164 | ATAGATGGGTG | 0.00885
165 | ATAGATGGGTG G34A | 0.00708
166 | ATAGATGGGTG G34T | 0.00668
167 | ATAGATGGGTT G34A G35T T37G | 0.0013
